Positions count from the first letter of the chain named.
T1: BMP-9, Q9UK05
T1 chain: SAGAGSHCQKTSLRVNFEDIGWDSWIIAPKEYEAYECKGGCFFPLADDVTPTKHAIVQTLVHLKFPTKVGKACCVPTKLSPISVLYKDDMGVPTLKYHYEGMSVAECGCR

T2: Activin A (UniProt P08476 311-426)
T2 sequence (looked up): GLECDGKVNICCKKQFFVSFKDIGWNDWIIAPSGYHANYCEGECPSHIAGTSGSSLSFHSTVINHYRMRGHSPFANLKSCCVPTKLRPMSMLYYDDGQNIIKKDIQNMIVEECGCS

T3: Activin B (UniProt P09529 293-407)
T3 sequence (looked up): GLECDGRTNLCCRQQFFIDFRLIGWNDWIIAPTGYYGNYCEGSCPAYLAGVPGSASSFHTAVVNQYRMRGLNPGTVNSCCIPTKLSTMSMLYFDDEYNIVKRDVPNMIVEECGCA

B1: ActRIIB/A variant (SEQ ID NO: 2)-Fc (Fc fusion, not shown: a dimerising Fc or GST)
chain: GRGEAETRECIFYNANWEKDRTNQSGLEPCYGDQDKRRHCFASWKNSSGTIELVKQGCWLDDINCYDRQECVAKKDSPEVYFCCCEGNFCNERFTHLPEAGGPEVTYEPPPTAPT
notes: Engineered variant of the human ActRIIB extracellular portion; expressed transiently in HEK293 and Protein A purified (SPR); conditioned media in the reporter assay; also called ActRIIB/A-Fc
B2: ActRIIB (SEQ ID NO: 17)-Fc (Fc fusion, not shown: a dimerising Fc or GST)
chain: GRGEAETRECIYYNANWELERTNQSGLERCEGEQDKRLHCYASWRNSSGTIELVKKGCWLDDFNCYDRQECVATEENPQVYFCCCEGNFCNERFTHLPEAGGPEVTYEPPPTAPT
notes: Recombinant wild-type extracellular ActRIIB-Fc; also called ActRIIB-Fc
B3: ActRIIBΔ9 variant (SEQ ID NO: 3)-Fc (Fc fusion, not shown: a dimerising Fc or GST)
chain: B2 chain with E20D, F63I, E75K
notes: Engineered variant of the human ActRIIB extracellular portion
B4: ActRIIB 2.12 variant (SEQ ID NO: 15)-Fc (Fc fusion, not shown: a dimerising Fc or GST)
chain: B2 chain with I11L, L27V, Q34K, T50S, I51L, L53I, Q69D, E70T, E75K, F89M
notes: Engineered variant of the human ActRIIB extracellular portion; recombinant protein
B5: ActRIIB 2.10 variant (SEQ ID NO: 13)-Fc (Fc fusion, not shown: a dimerising Fc or GST)
chain: B2 chain with I11L, L27V, Q34K, T50S, I51L, L53I, Q69D, E70T, F89M
notes: Engineered variant of the human ActRIIB extracellular portion; also called ActRIIB variant 2.10-hFc
B6: ActRIIB 2.11 variant (SEQ ID NO: 14)-Fc (Fc fusion, not shown: a dimerising Fc or GST)
chain: B2 chain with I11L, L27V, Q34K, T50S, I51L, L53I, Q69T, E70D, E75K, F89M
notes: as for B4
B7: ActRIIB 2.06 variant (SEQ ID NO: 9)-Fc (Fc fusion, not shown: a dimerising Fc or GST)
chain: B1 chain with F12Y, K19L, D20E, P29R, Y31E, D33E, R38L, I63F
notes: Engineered variant of the human ActRIIB extracellular portion; recombinant protein; also called ActRIIB variant 2.06-hFc
B8: growth differentiation factor 11 (GDF11) (ligand, UniProt O95390 299-407, looked up)
chain: NLGLDCDEHSSESRCCRYPLTVDFEAFGWDWIIAPKRYKANYCSGQCEYMFMQKYPHTHLVQQANPRGSAGPCCTPTKMSPINMLYFNDKQQIIYGKIPGMVVDRCGCS
B9: BMP-9 (ligand, UniProt Q9UK05 320-429, looked up)
chain: T1 chain
notes: also called bone morphogenetic protein 9
B10: ActRIIB 2.05 variant (SEQ ID NO: 8)-Fc (Fc fusion, not shown: a dimerising Fc or GST)
chain: B2 chain with E31Y, E33D, Q34K, T74K, E75K, E76D, N77S, Q79E
notes: as for B3
B11: ActRIIB 2.09 variant (SEQ ID NO: 12)-Fc (Fc fusion, not shown: a dimerising Fc or GST)
chain: B2 chain with I11L, L27V, Q34K, T50S, I51L, L53I, Q69T, E70D, F89M
notes: Engineered variant of the human ActRIIB extracellular portion; also called ActRIIB variant 2.09-hFc

Key:
Test in all cases: SPR (Biacore 3000), Fc fusion captured, ligand in solution
[1] = molecular target: T1, BMP-9, Q9UK05; settings: remark: other sources report otherwise
[2] = molecular target: T2, Activin A
Excerpt: (§1) The GE Biacore 3000 was used to measure the kinetics of the interactions between the ActRIIB-Fc variants and the ligands Activin A, Activin B, growth differentiation factor 11 (GDF11), and BMP-9. […] All other ActRIIB-Fc variants were expressed by transient expression in HEK293 cells and purified from the conditioned media using Protein-A Sepharose chromatography. Flow cells 1-4 were immobilized with anti-human/anti-mouse capture antibodies from GE using the amine coupling kit. The ActRII-Fc proteins were then captured on the chip in flow cells 2-4, with flow cell 1 being left empty as a reference cell to measure and subtract any nonspecific binding. HBS-EP+ buffer from GE Healthcare™ was used as a running buffer. Each ligand was run in a duplicate concentration series at 40 μl/min to avoid mass transport effects. All data was collected on a CM-5 chip except for GDF-11, which used CM-4. The data was analyzed using Scrubber2 by BioLogic™ Software to calculate the KD of each interaction (Table 4).

[3] = molecular target: B8
Excerpt: as §1

[4] = molecular target: T3, Activin B
Excerpt: as §1

[5] = molecular target: B9
Excerpt: as §1

[6] = molecular target: B2
Excerpt: as §1

Binder: B1
- Kd [1]: 88 nM
- binding result [2]: no binding
- binding result [3]: no binding
- binding result [4]: no binding

Binder: B2
- Kd [2]: 0.063 nM
- Kd [4]: 0.023 nM

Binder: B3
- Kd [2]: 390 nM
- Kd [3]: 530 nM
- Kd [4]: 400 nM
- Kd [5]: 28 nM

Binder: B4
- Kd [2]: 0.14 nM
- Kd [3]: 0.13 nM
- Kd [4]: 0.16 nM
- Kd [5]: 31 nM

Binder: B5
- Kd [2]: 0.45 nM
- Kd [4]: 0.28 nM
- Kd [5]: 1.7 nM

Binder: B6
- Kd [2]: 0.78 nM
- Kd [3]: 0.24 nM
- Kd [4]: 0.37 nM
- Kd [5]: 2.7 nM

Binder: B7
- Kd [2]: 0.053 nM
- Kd [3]: 0.027 nM
- Kd [4]: 0.1 nM
- Kd [5]: 0.3 nM

Binder: B8
- Kd [6]: 0.12 nM

Binder: B9
- Kd [6]: 0.28 nM

Binder: B10
- binding result [5]: no binding

Binder: B11
- Kd [2]: 0.1 nM
- Kd [4]: 0.16 nM
- Kd [5]: 0.44 nM

Source: patent publication US20230087128A1 (KEROS THERAPEUTICS, published 2023)
